# Measurements as given in article PMC4823995.
# Biological target: Mcm6-SuOn (budding yeast) (UniProt Q02724)
# Assay: co-IP
substance,measurement,value
Glc7 phosphatase (PP1) (from UniProt P32598 1-312) (enzyme),fold enrichment of Glc7 in the immunoprecipitate against Mcm6-ctrl,2 fold
